Assay results published in IntAct's records for PubMed 26449471.

B1: Sestrin-2 (Homo sapiens), P58004 (parent)
chain: MIVADSECRAELKDYLRFAPGGVGDSGPGEEQRESRARRGPRGPSAFIPVEEVLREGAESLEQHLGLEALMSSGRVDNLAVVMGLHPDYFTSFWRLHYLLLHTDGPLASSWRHYIAIMAAARHQCSYLVGSHMAEFLQTGGDPEWLLGLHRAPEKLRKLSEINKLLAHRPWLITKEHIQALLKTGEHTWSLAELIQALVLLTHCHSLSSFVFGCGILPEGDADGSPAPQAPTPPSEQSSPPSRDPLNNSGGFESARDVEALMERMQQLQESLLRDEGTSQEEMESRFELEKSESLLVTPSADILEPSPHPDMLCFVEDPTFGYEDFTRRGAQAPPTFRAQDYTWEDHGYSLIQRLYPEGGQLLDEKFQAAYSLTYNTIAMHSGVDTSVLRRAIWNYIHCVFGIRYDDYDYGEVNQLLERNLKVYIKTVACYPEKTTRRMYNLFWRHFRHSEKVHVNLLLLEARMQAALLYALRAITRYMT
partner: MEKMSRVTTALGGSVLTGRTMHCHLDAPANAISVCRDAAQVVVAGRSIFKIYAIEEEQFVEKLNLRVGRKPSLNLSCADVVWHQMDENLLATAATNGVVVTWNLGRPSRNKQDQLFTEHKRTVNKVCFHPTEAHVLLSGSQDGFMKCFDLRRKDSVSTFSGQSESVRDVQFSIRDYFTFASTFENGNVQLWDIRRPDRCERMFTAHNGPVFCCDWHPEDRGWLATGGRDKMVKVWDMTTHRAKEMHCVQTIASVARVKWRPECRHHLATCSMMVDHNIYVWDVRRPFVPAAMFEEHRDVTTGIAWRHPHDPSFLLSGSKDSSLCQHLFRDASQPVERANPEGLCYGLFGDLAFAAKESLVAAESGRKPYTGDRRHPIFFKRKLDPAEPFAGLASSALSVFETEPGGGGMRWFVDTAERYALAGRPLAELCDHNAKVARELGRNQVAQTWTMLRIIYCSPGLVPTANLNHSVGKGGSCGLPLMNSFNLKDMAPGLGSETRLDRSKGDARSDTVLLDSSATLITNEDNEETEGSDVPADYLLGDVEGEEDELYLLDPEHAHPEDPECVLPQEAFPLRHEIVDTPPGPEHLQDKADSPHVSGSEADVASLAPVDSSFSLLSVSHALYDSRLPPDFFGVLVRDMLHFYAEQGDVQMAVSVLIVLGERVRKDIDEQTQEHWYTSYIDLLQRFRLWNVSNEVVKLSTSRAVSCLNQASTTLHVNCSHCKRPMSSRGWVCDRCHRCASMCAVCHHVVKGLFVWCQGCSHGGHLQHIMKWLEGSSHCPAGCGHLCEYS

Variants of: B1
Conditions: with wdr24_human WDR24, Q96S15

| effect of a mutation on the interaction | Variant |
| --- | --- |
| disrupting interaction strength | S190W |
